Experimental data taken from patent US20130202618A1 (PROGENICS PHARMACEUTICALS, published 2013).

Key:
Assay in all cases: cell-based or functional assay
[1] = biological target: T1, Clostridium difficile toxin B (strain VPI 10463) (Clostridium difficile strain VPI 10463, UniProt P18177 2-2366)
[2] = biological target: T1, Clostridium difficile toxin B (strain …); remark: listed apart in the source
[3] = biological target: T2, C. difficile toxin A from strain HMC553 (ribotype 027, BI/NAP1/027) (Clostridium difficile strain HMC553)
[4] = biological target: T3, C. difficile toxin A from strain CD196 (ribotype 027, BI/NAP1/027) (Clostridium difficile strain CD196)
[5] = biological target: C. difficile toxin A from strain 630 (ATCC BAA-1382, ribotype 012) (Clostridium difficile strain 630)
[6] = biological target: C. difficile toxin A from strain Pitt 2 (ribotype 001) (Clostridium difficile strain Pitt 2)
[7] = biological target: C. difficile toxin A from strain UVA30/TL42 (ribotype 014) (Clostridium difficile strain UVA30/TL42)
[8] = biological target: T4, C. difficile toxin A from strain Montreal 7.1 (ribotype 027, BI/NAP1/027) (Clostridium difficile strain Montreal …)
[9] = biological target: C. difficile toxin A from strain Pitt 07 (ribotype 078) (Clostridium difficile strain Pitt 07)
[10] = biological target: T5, C. difficile toxin A from strain Montreal 5 (ribotype 027, BI/NAP1/027) (Clostridium difficile strain Montreal 5)
[11] = biological target: Clostridium difficile toxin A (strain VPI 10463) (Clostridium difficile strain VPI 10463, UniProt P16154 1-2710)
[12] = biological target: C. difficile toxin A from strain CCL14137 (ribotype 001) (Clostridium difficile strain CCL14137)
[13] = biological target: C. difficile toxin A from strain 545 (ATCC 43596, ribotype 012) (Clostridium difficile strain 545 (ATCC …))
[14] = biological target: T6, C. difficile toxin A from strain Pitt 45 (ribotype 027, BI/NAP1/027) (Clostridium difficile strain Pitt 45)
[15] = biological target: C. difficile toxin A from strain MH5 (ribotype 001) (Clostridium difficile strain MH5)
[16] = biological target: T7, C. difficile toxin A from strain CCL678 (ribotype 027, BI/NAP1/027) (Clostridium difficile strain CCL678)
[17] = biological target: C. difficile toxin A from strain UVA17 (ribotype 002) (Clostridium difficile strain UVA17)
[18] = biological target: T2, C. difficile toxin A from strain HMC553 …; remark: listed apart in the source
[19] = biological target: T3, C. difficile toxin A from strain CD196 …; remark: listed apart in the source
[20] = biological target: T4, C. difficile toxin A from strain …; remark: listed apart in the source
[21] = biological target: T5, C. difficile toxin A from strain …; remark: listed apart in the source
[22] = biological target: T6, C. difficile toxin A from strain Pitt …; remark: listed apart in the source
[23] = biological target: T7, C. difficile toxin A from strain CCL678 …; remark: listed apart in the source

T1 sequence (P18177 2-2366): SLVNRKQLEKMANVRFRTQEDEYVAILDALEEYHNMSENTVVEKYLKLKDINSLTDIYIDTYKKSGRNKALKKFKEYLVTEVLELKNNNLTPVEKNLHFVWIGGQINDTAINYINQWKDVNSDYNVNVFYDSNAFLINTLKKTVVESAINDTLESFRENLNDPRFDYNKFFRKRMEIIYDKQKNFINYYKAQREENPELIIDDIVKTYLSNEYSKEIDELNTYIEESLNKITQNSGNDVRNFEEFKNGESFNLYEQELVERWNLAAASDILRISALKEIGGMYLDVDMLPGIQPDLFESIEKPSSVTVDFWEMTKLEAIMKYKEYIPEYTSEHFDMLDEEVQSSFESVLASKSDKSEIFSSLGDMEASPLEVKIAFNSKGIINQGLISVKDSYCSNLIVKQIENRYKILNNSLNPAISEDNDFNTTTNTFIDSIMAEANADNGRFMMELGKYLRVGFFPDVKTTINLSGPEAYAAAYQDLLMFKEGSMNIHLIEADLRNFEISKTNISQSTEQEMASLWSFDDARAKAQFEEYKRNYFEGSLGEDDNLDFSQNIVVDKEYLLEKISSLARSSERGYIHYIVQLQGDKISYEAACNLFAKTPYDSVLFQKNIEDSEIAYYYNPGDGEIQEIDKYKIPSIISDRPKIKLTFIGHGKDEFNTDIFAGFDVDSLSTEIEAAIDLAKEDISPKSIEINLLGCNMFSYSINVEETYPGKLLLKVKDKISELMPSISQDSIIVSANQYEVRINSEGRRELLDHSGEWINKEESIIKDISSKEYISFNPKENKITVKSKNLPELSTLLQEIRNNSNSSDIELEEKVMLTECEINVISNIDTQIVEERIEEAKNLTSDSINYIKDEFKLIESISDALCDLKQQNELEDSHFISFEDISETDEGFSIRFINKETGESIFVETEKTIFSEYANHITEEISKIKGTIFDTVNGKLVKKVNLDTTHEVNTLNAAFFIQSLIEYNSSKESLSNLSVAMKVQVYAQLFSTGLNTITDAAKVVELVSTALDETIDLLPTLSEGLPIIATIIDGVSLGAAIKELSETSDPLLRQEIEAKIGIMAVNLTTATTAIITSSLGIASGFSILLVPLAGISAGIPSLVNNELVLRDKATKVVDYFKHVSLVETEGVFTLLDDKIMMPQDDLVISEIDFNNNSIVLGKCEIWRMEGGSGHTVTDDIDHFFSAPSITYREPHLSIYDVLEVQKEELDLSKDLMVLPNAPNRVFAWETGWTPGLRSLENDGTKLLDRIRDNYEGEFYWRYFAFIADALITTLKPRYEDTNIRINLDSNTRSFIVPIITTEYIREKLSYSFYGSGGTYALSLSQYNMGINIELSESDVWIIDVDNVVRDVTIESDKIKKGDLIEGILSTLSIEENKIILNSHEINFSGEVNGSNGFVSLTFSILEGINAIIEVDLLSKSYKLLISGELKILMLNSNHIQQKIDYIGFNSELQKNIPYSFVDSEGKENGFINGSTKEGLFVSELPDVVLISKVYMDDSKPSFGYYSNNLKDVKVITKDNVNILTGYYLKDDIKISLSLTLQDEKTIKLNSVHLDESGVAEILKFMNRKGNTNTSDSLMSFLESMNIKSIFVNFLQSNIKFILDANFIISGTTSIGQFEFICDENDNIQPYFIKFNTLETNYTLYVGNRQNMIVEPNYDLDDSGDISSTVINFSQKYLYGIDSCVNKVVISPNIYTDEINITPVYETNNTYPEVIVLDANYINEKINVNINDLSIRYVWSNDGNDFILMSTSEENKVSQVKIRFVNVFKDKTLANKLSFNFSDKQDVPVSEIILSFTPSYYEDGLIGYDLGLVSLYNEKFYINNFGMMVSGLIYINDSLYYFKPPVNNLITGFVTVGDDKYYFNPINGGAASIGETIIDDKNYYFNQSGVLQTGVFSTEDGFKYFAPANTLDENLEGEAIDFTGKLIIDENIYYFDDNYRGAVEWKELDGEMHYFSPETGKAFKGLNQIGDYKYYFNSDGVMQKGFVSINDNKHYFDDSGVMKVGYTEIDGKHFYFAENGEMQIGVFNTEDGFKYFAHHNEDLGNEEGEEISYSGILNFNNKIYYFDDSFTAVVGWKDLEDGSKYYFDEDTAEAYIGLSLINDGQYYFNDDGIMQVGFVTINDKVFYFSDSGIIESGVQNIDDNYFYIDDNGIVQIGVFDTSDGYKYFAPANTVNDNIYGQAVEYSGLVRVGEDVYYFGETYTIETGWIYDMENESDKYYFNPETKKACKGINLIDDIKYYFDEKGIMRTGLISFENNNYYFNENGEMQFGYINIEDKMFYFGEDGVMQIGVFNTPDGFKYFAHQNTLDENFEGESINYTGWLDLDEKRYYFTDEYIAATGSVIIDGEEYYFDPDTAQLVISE
Sequence of Clostridium difficile toxin A (strain VPI 10463) (P16154 whole entry): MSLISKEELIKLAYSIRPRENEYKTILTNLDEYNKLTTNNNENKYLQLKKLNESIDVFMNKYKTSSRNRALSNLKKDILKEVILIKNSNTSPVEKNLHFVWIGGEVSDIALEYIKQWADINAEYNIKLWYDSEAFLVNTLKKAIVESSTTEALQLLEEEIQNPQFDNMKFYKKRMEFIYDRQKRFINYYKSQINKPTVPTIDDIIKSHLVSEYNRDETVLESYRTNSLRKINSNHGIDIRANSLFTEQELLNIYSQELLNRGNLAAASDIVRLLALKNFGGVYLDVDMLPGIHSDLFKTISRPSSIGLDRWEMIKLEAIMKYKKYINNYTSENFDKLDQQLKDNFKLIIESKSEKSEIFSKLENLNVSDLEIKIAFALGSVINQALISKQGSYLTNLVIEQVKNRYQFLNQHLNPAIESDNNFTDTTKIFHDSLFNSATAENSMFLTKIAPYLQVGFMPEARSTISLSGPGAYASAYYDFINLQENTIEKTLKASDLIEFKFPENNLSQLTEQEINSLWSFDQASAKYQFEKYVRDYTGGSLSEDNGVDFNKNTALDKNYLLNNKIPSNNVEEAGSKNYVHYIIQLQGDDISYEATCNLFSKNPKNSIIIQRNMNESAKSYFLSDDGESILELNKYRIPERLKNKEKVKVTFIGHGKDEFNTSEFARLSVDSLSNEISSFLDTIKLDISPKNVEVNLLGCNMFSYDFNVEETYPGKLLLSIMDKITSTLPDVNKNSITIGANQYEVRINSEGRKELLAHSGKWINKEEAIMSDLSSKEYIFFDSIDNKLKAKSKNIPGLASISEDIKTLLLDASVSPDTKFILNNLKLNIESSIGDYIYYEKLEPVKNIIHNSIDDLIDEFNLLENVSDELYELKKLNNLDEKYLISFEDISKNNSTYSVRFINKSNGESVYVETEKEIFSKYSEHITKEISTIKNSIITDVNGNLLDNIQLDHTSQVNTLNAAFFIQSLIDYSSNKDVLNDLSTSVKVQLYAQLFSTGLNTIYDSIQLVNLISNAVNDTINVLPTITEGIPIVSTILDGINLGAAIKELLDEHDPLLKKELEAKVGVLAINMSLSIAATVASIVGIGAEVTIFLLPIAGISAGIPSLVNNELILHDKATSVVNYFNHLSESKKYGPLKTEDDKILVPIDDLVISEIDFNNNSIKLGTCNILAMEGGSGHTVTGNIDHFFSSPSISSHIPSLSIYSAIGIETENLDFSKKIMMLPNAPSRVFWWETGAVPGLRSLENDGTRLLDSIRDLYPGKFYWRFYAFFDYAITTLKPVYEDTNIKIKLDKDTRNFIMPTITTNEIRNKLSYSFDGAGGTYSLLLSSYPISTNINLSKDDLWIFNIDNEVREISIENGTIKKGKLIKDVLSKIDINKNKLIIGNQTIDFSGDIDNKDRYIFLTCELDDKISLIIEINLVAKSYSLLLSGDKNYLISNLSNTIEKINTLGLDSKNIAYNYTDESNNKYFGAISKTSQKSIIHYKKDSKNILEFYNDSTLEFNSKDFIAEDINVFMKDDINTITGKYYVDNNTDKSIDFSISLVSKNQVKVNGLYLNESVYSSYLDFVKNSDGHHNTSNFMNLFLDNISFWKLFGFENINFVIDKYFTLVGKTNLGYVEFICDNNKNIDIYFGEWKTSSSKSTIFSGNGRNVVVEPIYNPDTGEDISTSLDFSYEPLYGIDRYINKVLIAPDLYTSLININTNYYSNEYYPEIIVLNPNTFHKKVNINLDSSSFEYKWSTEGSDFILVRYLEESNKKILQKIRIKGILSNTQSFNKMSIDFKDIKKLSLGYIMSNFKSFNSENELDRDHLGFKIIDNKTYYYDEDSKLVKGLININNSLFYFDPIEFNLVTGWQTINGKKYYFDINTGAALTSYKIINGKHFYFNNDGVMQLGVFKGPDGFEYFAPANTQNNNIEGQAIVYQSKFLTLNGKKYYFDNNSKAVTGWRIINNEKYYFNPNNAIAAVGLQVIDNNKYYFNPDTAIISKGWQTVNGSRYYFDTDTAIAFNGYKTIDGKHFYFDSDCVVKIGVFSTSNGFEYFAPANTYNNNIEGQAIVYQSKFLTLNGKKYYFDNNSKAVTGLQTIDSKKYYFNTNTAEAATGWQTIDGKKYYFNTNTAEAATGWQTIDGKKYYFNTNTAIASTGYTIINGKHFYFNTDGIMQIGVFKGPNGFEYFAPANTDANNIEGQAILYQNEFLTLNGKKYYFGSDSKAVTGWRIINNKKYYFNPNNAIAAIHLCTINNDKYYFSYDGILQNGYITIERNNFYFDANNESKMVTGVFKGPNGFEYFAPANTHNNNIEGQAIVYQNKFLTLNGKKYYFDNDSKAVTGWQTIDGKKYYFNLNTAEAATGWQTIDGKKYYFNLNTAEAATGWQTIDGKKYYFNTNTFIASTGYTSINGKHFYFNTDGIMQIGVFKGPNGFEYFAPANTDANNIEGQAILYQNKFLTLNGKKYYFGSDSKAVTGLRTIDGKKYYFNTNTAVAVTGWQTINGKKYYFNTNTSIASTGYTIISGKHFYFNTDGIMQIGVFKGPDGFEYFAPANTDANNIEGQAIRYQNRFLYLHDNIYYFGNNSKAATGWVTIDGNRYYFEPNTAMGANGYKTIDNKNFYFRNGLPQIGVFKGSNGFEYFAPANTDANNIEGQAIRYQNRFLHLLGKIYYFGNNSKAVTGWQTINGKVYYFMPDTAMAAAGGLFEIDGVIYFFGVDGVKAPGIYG

B1: humanized anti-C. difficile toxin B monoclonal antibody PA-41 (antibody, V domains shown)
VH: QVQLVQSGAEVKKPGASVKVSCKASGYPFTNYFMHWVRQAPGQRLEWIGRINPYNGATSYSLNFRDKATITLDKSASTAYMELSSLRSEDTAVYYCARSTITSPLLDFWGQGTLVTVSS
VL: EIVLTQSPATLSLSPGERATLSCRASQSVGTSIHWYQQKPGQAPRLLIKFASESISGIPARFSGSGSGTDFTLTISSLEPEDFAVYYCQQSNKWPFTFGQGTKLEIKR
EC50, neutralization of supernatant cytotoxicity on CHO-K1 cells [1]: 0.0077 nM
EC50, neutralization of toxin B cytotoxicity on CHO-K1 cells (toxin B 2 pg/mL) [2]: 6000 nM
EC50, neutralization on IMR-90 cells [2]: 5000 nM

B2: humanized anti-C. difficile toxin A monoclonal antibody PA-50 (antibody, V domains shown)
VH: QVQLVQSGAEVKKPGASVKVSCKASGYTFTDYNMDWVRQAPGQRLEWIGDINPKYDIIGHNPKFMGKATITVDKSASTAYMELSSLRSEDTAVYYCARSDRGWYFDVWGQGTLVTVSS
VL: EIVLTQSPATLSLSPGERATLSCRASSSVNYMNWYQQKPGQAPRPRIYATSNLASGVPARFSGSGSGTDYTLTISSLEPEDFAVYYCQQWSSRTFGGGTKLEIKR
EC50, neutralization of supernatant cytotoxicity on T-84 cells [3]: 0.029 nM
EC50, neutralization of supernatant cytotoxicity on T-84 cells [4]: 0.061 nM
EC50, neutralization of supernatant cytotoxicity on T-84 cells [5]: 0.054 nM
EC50, neutralization of supernatant cytotoxicity on T-84 cells [6]: 0.027 nM
EC50, neutralization of supernatant cytotoxicity on T-84 cells [7]: 0.051 nM
EC50, neutralization of supernatant cytotoxicity on T-84 cells [8]: 0.031 nM
EC50, neutralization of supernatant cytotoxicity on T-84 cells [9]: 0.032 nM
EC50, neutralization of supernatant cytotoxicity on T-84 cells [10]: 0.029 nM
EC50, neutralization of supernatant cytotoxicity on T-84 cells [11]: 0.02 nM
EC50, neutralization of supernatant cytotoxicity on T-84 cells [12]: 0.039 nM
EC50, neutralization of supernatant cytotoxicity on T-84 cells [13]: 0.038 nM
EC50, neutralization of supernatant cytotoxicity on T-84 cells [14]: 0.043 nM
EC50, neutralization of supernatant cytotoxicity on T-84 cells [15]: 0.127 nM
EC50, neutralization of supernatant cytotoxicity on T-84 cells [16]: 0.029 nM
EC50, neutralization of supernatant cytotoxicity on T-84 cells [17]: 0.026 nM
neutralization activity on T-84 cells relative to comparator mAb CDA-1 [18]: > 100 fold
neutralization activity on T-84 cells relative to comparator mAb CDA-1 [19]: > 100 fold
neutralization activity on T-84 cells relative to comparator mAb CDA-1 [20]: > 100 fold
neutralization activity on T-84 cells relative to comparator mAb CDA-1 [21]: > 100 fold
neutralization activity on T-84 cells relative to comparator mAb CDA-1 [22]: > 100 fold
neutralization activity on T-84 cells relative to comparator mAb CDA-1 [23]: > 100 fold
